Assay: soluble fraction after stress (log2 fold change); higher = more stays soluble; pooled small domains, quantitative proteomics
Details: stress: 75 degC
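Also: 20 min heating vs room temperature control held 20 min.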

Row | Sequence | soluble fraction (log2)
1 | HMTSIISLAKARSIALQKVPGATSKNIHLSLDDEDDKQVYEGEIKYKQMEYVFEIDAKTGTFLKWTSERD | -1.92
2 | HMTSKTLSAVEGEGLRLDKFLSNQLPELSRTKIQKMINDGLVFVNNTEAKASLILDGSEFIAYTVPD | -0.243
3 | HMTSLAEQAYRHIRDKLSNGAFVPGEQLVNRVLATEIGVSVIPVREAINRLATEGLVKHVPGSGAFVRQ | -0.0622
4 | HMTSLYDILGIAKTADSQTIKTAFKKKALLYHPDKNNGNLKKEEIFKKISTAYQILSDPKSRANYDLSIA | -0.272
5 | HMTSMNNTEELIDMANKIIDNNPNMVLKYKEGRNVLDFFIGQVMKETKGRANPSATSKIFKDLLEK | -0.0827
6 | HMTSNKTVPYSELKGLISTGKIEYVGIGNTQIRAVSKSGAGIVTYTARRVIPDDTLIPELEKNGIAYGGI | -0.838
7 | HMTSNSLNLKDEISAFLTKNAGISYSAERIAHALNMDNADQFTPIIQTLAQLEREKKVRVTDKGEFEAVIK | 0.02
8 | HMTSSKISFIDPVNGGKVSVSLENSTLEKLQNRFGVNSVVRNEAGDVELKDKAQEFVAGWFADIAYTRG | -0.0154
9 | HMTTAGTAIVQTGNSGKLNLREQAYANAGILGRYSNGTAVTVLQKGAAWSYVEVKGQKGYMMSKFLKFTS | -1.53
10 | HMTTEIVRMKKDVKIGQEITAKDIEVVEVGAYNLPDEVIRSSEEVVGKYVSSELLKGEYVLPSKISDTP | 0.22
11 | HMTTEPYILTRMPDGSIKAEPNLNYKGPEQKPGSNIQVKGADGRIYLVPIDGQGKPGKPQLVD | 0.0898
12 | HMTTGLETYPGKIAVVSDDFIDGEGRVQLDGALWRAKTKDHQQLKQGDHVTIVNVKGLTLTVMPDD | 0.716
13 | HMTTGREGLIGAVGTVRQAIAPEGYVFVEGELWRAKSPAGPLEPGTTVRVIAIDGLTLTVMPAE | -0.965
14 | HMTTGTVKWFNDAKGFGFITPDDRSVDVFVHYSNIVGQSGRRTLMEGERVEYEAIEGPKGPQATDVARA | -0.223
15 | HMTTIFDNINGELRRRHLTQQDLAKTIEIDRRTWSKWQDKNDMPASVLLQIAKWLNVTLDYLTRD | -2.57
16 | HMTTIKLTQEDVEKIKSLPKRTFLIGNLQQTGLYDEKTRRFYYLDANGEWNGRLAIINTPPPPPPPP | 0.0273
17 | HMTTKYMVLVNWVKEKVRTNELKTGEKLYSEHEFSRMFHMSRQTVRHGISILERENIVERRQGSGTFIKDA | -2.95
18 | HMTTKYVAVHESKDGYWTIASKPSSKEDAEAMLGGTPKNEVGKVVTLEEAKAHKKTLGEEYLYE | 0.218
19 | HMTTMTTGQRIAAKRKEQGLSQENLGEQLGVSRQAIYKWESDASLPDIDKLIALSRLFGVSTDYLLLE | -0.584
20 | HMTTQIPEEVQKRVNQFYEALDEEDYGEAKQILEELEKATAPDHPTLIQMRTRYEFDTMELR | 0.329
21 | HMTTTPAERQRTILRSLNRVDPVSVDALARLTGVSVVTIRRDLSDLASRDLIRRVHGGALLPTR | -1.62
22 | HMTTYSVDLGDIRAVADSDGKLVELTLHAAVTTHYSHSELADRLNLAFTALREEAQADYETRY | 0.223
23 | HMTTYTGVVTGSGVNVRSGAGTSYPVVGSKTMGDVVTITETVSADGMIWGKIDIGWISMNYVRM | -2.75
24 | HMTVAQEIEARRATIRSSDPAEMARFIRWLIMEGHTEPAADELKKYAENFPEASATTKQLQALLAAR | -0.311
25 | HMTVDIADALRVLGLSDAPDWSDVRAAHRRAIVRTHPDAGGSAGDAARVNQAFDLLRKISGNGERPIPG | 0.012
26 | HMTVDTSELEEMIDDLIKEHPNEWERYSSGEKKVQGFFVGQVMKATSGQADGKAINQILSKRVKS | 0.803

Row | Sequence | soluble fraction (log2)
27 | HMTVDYDKFTKDTVVQHNKFGKGVIIMTSGDGEDKIASIAFQGLGVKRFSLAIAASNLKILGKVNED | -2.48
28 | HMTVEVFQSLVQTFREMSPRKAASILEELKRDLAVEILLHMPEDGVAAILARMDPARAARLTEQLALEKD | -1.86
29 | HMTVGEAHLEEVYLKVLKQVEEQGTALIRTTDVETGRPAAGIRRRYMRGTLPDEWVAKFEALPGWTWAPG | -3.04
30 | HMTVGEKIQKYRKDLDLSQEELGQKLLVSRQTISLWEKDQTVPTIDNLIRLREIFGVSVDEILGF | -0.818
31 | HMTVIARQIPPLVPRMLDGLEAFIKLDVPFEEKERLARVQMLRSSLDRDNLDTAEIFRAVLEAYNIELQY | 0.352
32 | HMTVKKEIAKVKPTPLGWLRVRETPSLNGAEITKVNTGESYDVLDKETGWIKIKVSETVEGWVSDAYIELS | -0.319
33 | HMTVLPTENDAKALVGLNEDEAVKIIEGNGWTYRIGSRDGEQFMLTEDYSTSRLTLGIEKSIVVTATI | -0.543
34 | HMTVLVPNLTGKTLLEAEILLDQAGLKKGDVYSESNKNVPKDHIIRQKPAPNTKIQKGATIDIYRSLGPE | -0.0471
35 | HMTVNLPPKQKAAILLMSLPPEVSAQLFKELGPDEVHAITLEISKLPPISPDVRAQVIDEFLHSS | -0.641
36 | HMTVSIGSVIARERRLRGDTQQELAERLGVSKAAVSKWEVGQSIPDVTLLPRIAAYFSLTLDEL | -2.45
37 | HMTVVLPGESLTVNIIQEGKELGQGVGYLDDGTMVVIEDGRRYIDQTIEVTVTRVLQTVAGRMIFAQLT | -4.46
38 | HMTWDSFIGYTVTDVQKGYLGEITDVDETTINVLLRVDHKGEELLIPAVEELITEADHEARSLTVSLPEGL | -0.398
39 | HMTYFIADLIGLQVYTDSGELLGKVDDIYNSGSADIYVVKDELGKQILLPGIKDVIKQIDVDNEKIIVHLI | -1.24
40 | HMTYIQSNLKFLRNKMNISQEELAKRLFVTHQTVSNHENGKSQPNFEMIEKYASFFNVPFEDLIHKDLSL | -0.68
41 | HMTYNIPEHYQTIDVKEYVRKLVSDGDSDQIGRVEMELTEFETRNLFPVLKVLIYIIDTMRK | -3
42 | HMTYQTVRYGSTGSAVRQLQSALNQKGYQLSEDGIFGAKTRAAVRDYQKKNGLLLDGIAGSQTWNHLMS | -0.179
43 | HMTYSSESVRYRIKSLIDNETIDEILSDDKIVNILKSQGIDVARRTVAKYREAMGLASSIQRRREKKSA | -0.707
44 | HMVAGGTVSRKLSIETGLPKRKSLIGSWLDQNSVWHNIISVRHRNGYGDGVNYGFYLRSLLTSEGNLAW | -0.0583
45 | HMVAGHLQTKKGYYYIVLNMRTDTGARKTKWIATGIPEGGKKNLKQAEELLAKTRYTYEDMVI | -2.52
46 | HMVAPKTEEQQKMFLESIVTKRQAETLIEKYPNIVQDIIDGTDNVDLANLKGIGEHTYNLIKEKVLSNY | 0.546
47 | HMVAPPILNITTHIFAEEADLRMVMINGVTRREGDSLGENHRLLEITERGLILIFHNKQYTLDV | -4.32
48 | HMVAQEVPYSTFVMRLDRNEVDAVKIIDGNEIEGTFKSPNGDLVQFKTLIPYQDTELMPLLKQKGVRISGS | 0.427
49 | HMVARPVLQIGSTGADVTAIQARLGVSQTGYFGVLTAAAVTNFQRSNGIAASGKVGATTWAKLMQSA | -2.37
50 | HMVAVSQEEATKMALERVSGASAQDIRIQLEFDDGIQKYEGDIIYNGREYEFEIDANTGTFLEWSEERA | -0.176
51 | HMVDETDVPTFTDMTLEEAQNEAKQRNLKLEITESPSDKEKDTILEQDPEPGKTVASGSTVKLTVSNGEE | -0.157
52 | HMVDFHAAYSILRIAPGASWQEIQAAYEKLNDAWREDRYPQVPFWNEKAAFKRREVEQAYEKLRKFHALRH | -2.43

Row | Sequence | soluble fraction (log2)
53 | HMVDFVNVVVPVKANYGGEAVVEFLDERLSEFGTEGIYRIELQGETMENPSPDYSQLKAKYHISEIVDRT | 0.0718
54 | HMVDKDFKPLYASLERLDSTSIIEILDSNRIDYRIDQRSGALLVDADQIHQARLSLASAGMPA | -0.263
55 | HMVDLANIDPIASSIKLNGAEADASFNTLEDRRVSVSGSFEENKNYTMEYTFKDYAGGSVTGTLDFKTLA | 0.36
56 | HMVDLAPTEEIIKNLPNNSRSLLIPTLQKIQNAYRYLPSPAMELLSEFLNVTRAEIYGVISFYPSLL | 0.173
57 | HMVDLLDETLIEFYAFANNLIKDLETNSEKYGGMSQFEKELIFNEQITQYQRKLKIDLQDEVG | -1.8
58 | HMVDPRLRSLTPQERRILEHIAEGLTNRQIAEDMFLAEKTVKNYVTSILDKLGMDSRTQAAVYAATHPT | -0.483
59 | HMVDSTDLIPLLIKVSREKQGNKKLNWGEWLKIPENIYLKQINENIARKVFEDTNDLIDEAVNYINRKRRN | -0.963
60 | HMVDTEVFSRLLRKVLAGDVTSAIRILEELIVGGRELSQFVGDFTWYMRNLLLVKTSDNPEEA | -0.463
61 | HMVDYYEILGVSPDASRKDIENAWRKKMREAHPDMGGSEDKAQLLNEAHKVLSDESARAEYDASR | 0.181
62 | HMVELPDLIGKSKRLAFTQLEISGLKIGKIIYEPDLAKDAVLKILYNGKIVKAGEQLPRFATVDLVLG | -2.11
63 | HMVEMIGLQMVGKSGIASTVLRPSGKVRIDGVVYDAVSEDGFIEKGQAVKVLRYETGQVYVEKL | -0.727
64 | HMVEPIEESISQLSLLLQSLYEDGKSEVSFEELIRSDRSRVSLFLALLFMAQRGNVYLEQEELFGDLRVKN | 0.0329
65 | HMVEREYRLEVPPEAEGKRLDQFLVNQPVQLSRSQVQHLIQNGLVLVNAKTRRSSYRVHTGDIIEMQVPA | 0.121
66 | HMVERQVTVPNLTGLGVADAQRLAQSMELDIEVLGEQESTDARPGAVLQQTPGAGTRAAAGSVVSVLV | 0.201
67 | HMVEVPEQLRDLLERSIEDLAELSVRSRNSLQKENIQTLGDLVQRTEEEMLGIENFGKKSLTEIAAFL | -0.217
68 | HMVEYFDDENLDAFIGRESDSYTEKEIEQFREILYTMNQKEVADWNRSLTIRGINIPNDLKDEMIMMI | -0.225
69 | HMVEYIENINLSEKQKFIAHEILKEIRGRAIFLRDVGLDYLNLSRKAGTLSGGEAQRIRLATQIGSA | 0.198
70 | HMVFKSAQEGLDFYSKQLNDVDATLGRIRRGEESGNGLYGSNRVKNLEEQRKKLDSFVTAYRNAVNAT | 0.0212
71 | HMVFTEEEMLEKIKEYLSTNSYINRRAMETLFNLRQSTALKWLGHFTEIGVLRKEGERNYPVYFLNN | -0.972
72 | HMVGADTISDLISQRGRMIGDKPITNAVIKSGSEFSTINALSKAIASGDARTNDVEGMKPVFR | -0.126
73 | HMVGKGASIILDRVNLPQYLEKFNEDGFDTIESLKNLNEIDLKEMGVKKGHIRVILNYLHEEY | -0.421
74 | HMVGLKWYDTGNKKPPIGTEYKNTELSEALKGHDRKEFTWKELDVLGVNITDKEQYIVVGENYYTQV | 0.0506
75 | HMVGPAHIGLAVAKDQLPHWERHLTANGVEIEGRMRWDHGGESIYFRDPDAHLLELVTPGIWAN | 0.0383
76 | HMVGVDMTVKEEVGKEGVTFTDLRPAGKVEIGNDIYDAVSNTGAFIQKGEKVKIIKYQAGQVYVEKLV | 0.00838
77 | HMVIANADVRAKFSKGKDSFVKYYFKEKVLKDGFTEEVKNNIVQALFYLQIVTRIDGESGVLIIDY | 0.123

Reference: the domain aggregation screens of Martell et al. (2025)
